What is called Kd is a measure of binding affinity in units of concentration.

Read-outs that look alike come from different tables or passages of the source.

In test [1] the target is full length human PAR-2 (human) (UniProt P55085). The experiment in a line: cell-based or functional assay.
Test [2] deals with full length mouse PAR-2 (mouse) (UniProt P55086). The experiment in a line: cell-based or functional assay.
The target of test [3] is monkey PAR-2 (monkey). The experiment in a line: cell-based or functional assay.
The target in test [4] is C-terminal biotinylated human PAR-2 14-mer peptide SEQ ID NO:884 (…, wild-type) (human). The experiment in a line: BLI Exp2.
C-terminal biotinylated human PAR-2 14-mer peptide SEQ ID NO:884 (…, wild-type) (human), sequence (peptide, as listed by the source): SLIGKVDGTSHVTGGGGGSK
Test [5] concerns the target C-terminal biotinylated human PAR-2 14-mer peptide SEQ ID NO:885 (Val-42 to Ala) (human). The test is described as follows: BLI Exp2.
Test [6] deals with C-terminal biotinylated human PAR-2 14-mer peptide SEQ ID NO:886 (Asp-43 to Ala) (human). The experiment in a line: BLI Exp2.
C-terminal biotinylated human PAR-2 14-mer peptide SEQ ID NO:886 (Asp-43 to Ala) (human), sequence (peptide, as listed by the source): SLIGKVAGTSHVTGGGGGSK
The target of test [7] is C-terminal biotinylated human PAR-2 14-mer peptide SEQ ID NO:887 (Val-42 and Asp-43 to Ala) (human). The experiment in a line: BLI Exp2.
C-terminal biotinylated human PAR-2 14-mer peptide SEQ ID NO:887 (Val-42 and Asp-43 to Ala) (human), sequence (peptide, as listed by the source): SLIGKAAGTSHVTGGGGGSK
Test [8] addresses Peptide B (human PAR-2), unbiotinylated (Human). The experiment in a line: SPR, antibody captured.
Test [9] concerns the target T1, Peptide B (human PAR-2), C-terminal biotinylated (Human).
T1 sequence (peptide, C-terminal biotin via G4S linker): SLIGKVDGTSHVTGGGGGS
The experiment in a line: SPR, peptide immobilized. Background: SPR reads the build-up and loss of mass on a sensor chip optically.

Test [10] addresses T2, Peptide B (human PAR-2), N-terminal biotinylated (Human).
T2 sequence (peptide, N-terminal biotin via G4S linker): GGGGSSLIGKVDGTSHVTG
The test is described as follows: SPR, peptide immobilized.

Test [11] addresses T1, Peptide B (human PAR-2), C-terminal biotinylated (Human). The experiment in a line: SPR, peptide immobilized. The source holds these as a separate data set.
Test [12] addresses full length human PAR-2 (human) (UniProt P55085). The experiment in a line: cell ELISA, 10 ug/ml antibody. For orientation: In an ELISA, binding on a coated surface is turned into a signal by an enzyme label.

full length human PAR-2 (human), sequence (P55085 26-397 G138A limits assumed): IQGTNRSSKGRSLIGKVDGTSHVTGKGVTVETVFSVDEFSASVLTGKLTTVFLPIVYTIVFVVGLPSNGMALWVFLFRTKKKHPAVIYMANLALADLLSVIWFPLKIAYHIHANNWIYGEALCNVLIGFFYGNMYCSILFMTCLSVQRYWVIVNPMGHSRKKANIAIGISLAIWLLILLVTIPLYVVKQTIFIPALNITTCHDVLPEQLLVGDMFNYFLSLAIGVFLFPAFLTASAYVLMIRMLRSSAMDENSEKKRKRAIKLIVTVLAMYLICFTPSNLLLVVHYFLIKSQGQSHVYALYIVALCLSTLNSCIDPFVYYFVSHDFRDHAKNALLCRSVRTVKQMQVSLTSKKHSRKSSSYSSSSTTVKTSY
full length mouse PAR-2 (mouse), sequence (P55086 other isoform, or with tags, fused parts or gaps limits assumed): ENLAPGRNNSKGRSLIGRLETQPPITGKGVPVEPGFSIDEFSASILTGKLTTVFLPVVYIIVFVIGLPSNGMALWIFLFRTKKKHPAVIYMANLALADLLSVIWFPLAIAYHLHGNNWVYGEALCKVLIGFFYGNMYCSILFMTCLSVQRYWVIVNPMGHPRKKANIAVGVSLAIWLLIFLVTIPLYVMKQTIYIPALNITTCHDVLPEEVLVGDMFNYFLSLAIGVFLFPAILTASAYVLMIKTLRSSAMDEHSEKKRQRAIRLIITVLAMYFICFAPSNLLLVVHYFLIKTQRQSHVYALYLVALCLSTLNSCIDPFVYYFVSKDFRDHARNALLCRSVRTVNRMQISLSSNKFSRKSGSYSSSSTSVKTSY
Human Kallikrein 5, sequence (Q9Y337 67-293 limits assumed): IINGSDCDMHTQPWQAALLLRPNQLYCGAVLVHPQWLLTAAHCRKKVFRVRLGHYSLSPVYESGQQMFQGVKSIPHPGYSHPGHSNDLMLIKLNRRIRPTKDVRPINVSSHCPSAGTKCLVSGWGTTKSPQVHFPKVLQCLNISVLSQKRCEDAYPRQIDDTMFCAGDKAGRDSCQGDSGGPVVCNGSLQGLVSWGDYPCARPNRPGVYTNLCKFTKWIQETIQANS
C-terminal biotinylated human PAR-2 14-mer peptide SEQ ID NO:885 (Val-42 to Ala) (human), sequence (peptide, as listed by the source): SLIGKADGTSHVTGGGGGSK

As for “Bovine Factor Xa (from UniProt P00743 41-492) (enzyme)”, the EC50 of activator, NF-kB-luciferase in test [1] was 27.2 nM; in test [2], 46.3 nM; in [3] it was 58.2 nM.

On to “Comparator 2, antibody having the heavy and light chain variable regions of the antibody referred to as Sam-11 (Molino et al. 1998)”, for which the % Rel Binding in test [4] worked out at 100%; in test [5], 120%; in test [6], 88%; in test [7], 87%. In addition, the % Rel T1/2 was determined as 100% in test [4], 159% in test [5], 27% in [6] and 27% in [7].

As for “Human Factor Xa (from UniProt P00742 41-488) (enzyme)”, the EC50 of activator, NF-kB-luciferase in test [1] was found to be 46.3 nM; in test [2] it was 78.7 nM.

On to “Human Kallikrein 5 (from UniProt Q9Y337 67-293) (enzyme)”, for which the EC50 of activator, NF-kB-luciferase in test [1] was 28 nM; in test [3], 16.8 nM.

Human Pancreatic Trypsin (enzyme): in [3], the EC50 of activator, NF-kB-luciferase worked out at 2.4 nM.

On to “Non-Specific Control (non-PAR-2 specific control antibody)”, for which, in test [1], the IC50, calcium mobilization FLIPR, 100 nM Trypsin is more than 1000 nM.

Turning to “Sam11, commercially available mouse monoclonal antibody that binds human PAR-2 (Santa Cruz Biotechnology)”, the equilibrium dissociation constant (Kd) in test [8] stood at 149 nM; in test [9] it was 0.99 nM; in test [10], 0.279 nM; in [11] it was 0.935 nM. Further, the T1/2 in test [8] turned out to be 0.1 min; in test [9], 19 min; in [10], 32 min; in [11], 14 min. For the same substance, the A450 ratio (293/D9/hPAR-2rec to 293/D9 cells) in test [12] was found to be 1.49.

For Tryptase (Table 22) (enzyme), in test [1], the EC50 of activator, NF-kB-luciferase is 61.1 nM.

Source of the values: patent US20110059095A1.
